Results from US20080026996A1, “Selective Vpac2 Receptor Reptide Agonists” (ELI LILLY AND COMPANY, priority 2004, published 2008).
Residue numbers refer to the chain shown, from its start. In names and notes the source's numbering stands. Where no end group is shown, it is not given here. [ ]: non-standard residue; d: D form. The star is where a group is joined. Hexanoyl = CCCCCC(=O)*; Aib = CC(C)(N)C(=O)O

T1: rat VPAC2 receptor (rat, UniProt P35000 23-437)
T1 construct: whole, on cells; transfected CHO-PO cells in DiscoveRx
T1 sequence (looked up): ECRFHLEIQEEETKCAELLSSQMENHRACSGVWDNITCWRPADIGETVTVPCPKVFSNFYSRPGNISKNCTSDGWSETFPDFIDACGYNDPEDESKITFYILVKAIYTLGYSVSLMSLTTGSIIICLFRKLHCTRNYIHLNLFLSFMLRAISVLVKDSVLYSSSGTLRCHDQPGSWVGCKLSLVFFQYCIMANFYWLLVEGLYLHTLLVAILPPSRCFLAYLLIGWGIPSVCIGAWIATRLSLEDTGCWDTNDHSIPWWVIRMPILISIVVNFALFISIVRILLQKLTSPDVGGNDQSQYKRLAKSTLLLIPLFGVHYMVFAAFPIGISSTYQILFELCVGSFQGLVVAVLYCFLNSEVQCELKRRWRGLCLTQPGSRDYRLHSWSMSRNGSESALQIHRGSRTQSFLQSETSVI

T2: rat VPAC1 receptor (rat, UniProt P30083 31-459)
T2 sequence (looked up): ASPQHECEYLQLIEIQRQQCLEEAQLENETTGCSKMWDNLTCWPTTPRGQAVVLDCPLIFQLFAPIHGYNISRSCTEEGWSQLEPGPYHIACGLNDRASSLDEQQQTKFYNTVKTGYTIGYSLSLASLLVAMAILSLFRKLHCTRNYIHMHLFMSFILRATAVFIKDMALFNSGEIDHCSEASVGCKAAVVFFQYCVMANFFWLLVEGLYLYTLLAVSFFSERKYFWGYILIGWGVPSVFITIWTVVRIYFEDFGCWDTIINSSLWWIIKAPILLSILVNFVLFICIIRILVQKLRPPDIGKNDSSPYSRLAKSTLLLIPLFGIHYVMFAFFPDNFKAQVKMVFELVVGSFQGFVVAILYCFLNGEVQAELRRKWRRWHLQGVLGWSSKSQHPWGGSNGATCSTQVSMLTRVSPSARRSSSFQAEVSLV

T3: rat PAC1 receptor (rat, UniProt P32215 20-523)
T3 sequence (looked up): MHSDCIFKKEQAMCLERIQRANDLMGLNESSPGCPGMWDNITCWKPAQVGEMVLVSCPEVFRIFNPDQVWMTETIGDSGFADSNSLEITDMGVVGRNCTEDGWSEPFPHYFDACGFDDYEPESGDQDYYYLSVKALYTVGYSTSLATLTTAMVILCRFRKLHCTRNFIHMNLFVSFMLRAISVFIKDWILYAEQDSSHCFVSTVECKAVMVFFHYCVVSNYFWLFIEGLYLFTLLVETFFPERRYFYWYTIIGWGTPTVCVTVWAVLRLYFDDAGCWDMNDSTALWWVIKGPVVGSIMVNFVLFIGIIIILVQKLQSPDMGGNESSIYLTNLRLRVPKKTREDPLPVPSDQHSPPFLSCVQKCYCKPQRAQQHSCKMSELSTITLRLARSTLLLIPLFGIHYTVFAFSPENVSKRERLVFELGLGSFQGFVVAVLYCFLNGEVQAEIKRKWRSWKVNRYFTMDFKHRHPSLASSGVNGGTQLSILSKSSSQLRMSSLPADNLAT

T4: human VPAC1 receptor (human, UniProt P32241 31-457)
T4 sequence (looked up): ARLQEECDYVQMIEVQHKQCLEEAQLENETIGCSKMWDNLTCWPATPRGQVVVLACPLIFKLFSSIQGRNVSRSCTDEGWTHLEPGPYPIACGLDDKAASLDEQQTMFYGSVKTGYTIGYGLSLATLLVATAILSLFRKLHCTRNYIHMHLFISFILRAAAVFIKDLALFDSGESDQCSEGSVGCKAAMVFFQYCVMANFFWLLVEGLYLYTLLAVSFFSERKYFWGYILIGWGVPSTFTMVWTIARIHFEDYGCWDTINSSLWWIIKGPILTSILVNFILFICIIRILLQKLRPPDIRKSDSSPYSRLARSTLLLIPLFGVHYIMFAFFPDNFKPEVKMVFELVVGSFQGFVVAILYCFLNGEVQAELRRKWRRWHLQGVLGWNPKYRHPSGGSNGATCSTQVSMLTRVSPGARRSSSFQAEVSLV

T5: human PAC1 receptor (human, UniProt P41586 21-468)
T5 sequence (looked up): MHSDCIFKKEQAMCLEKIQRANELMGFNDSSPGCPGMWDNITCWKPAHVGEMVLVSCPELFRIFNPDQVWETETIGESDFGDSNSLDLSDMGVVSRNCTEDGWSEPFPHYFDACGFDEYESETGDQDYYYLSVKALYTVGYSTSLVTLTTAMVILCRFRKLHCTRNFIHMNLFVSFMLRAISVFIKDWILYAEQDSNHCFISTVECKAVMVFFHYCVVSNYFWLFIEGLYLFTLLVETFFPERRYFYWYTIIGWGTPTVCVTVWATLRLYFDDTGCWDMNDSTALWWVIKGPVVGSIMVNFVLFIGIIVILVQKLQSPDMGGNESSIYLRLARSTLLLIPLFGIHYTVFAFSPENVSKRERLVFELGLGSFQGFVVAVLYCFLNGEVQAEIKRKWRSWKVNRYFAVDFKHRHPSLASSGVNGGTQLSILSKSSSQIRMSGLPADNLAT

T6: human VPAC2 receptor (human, UniProt P41587 24-438)
T6 sequence (looked up): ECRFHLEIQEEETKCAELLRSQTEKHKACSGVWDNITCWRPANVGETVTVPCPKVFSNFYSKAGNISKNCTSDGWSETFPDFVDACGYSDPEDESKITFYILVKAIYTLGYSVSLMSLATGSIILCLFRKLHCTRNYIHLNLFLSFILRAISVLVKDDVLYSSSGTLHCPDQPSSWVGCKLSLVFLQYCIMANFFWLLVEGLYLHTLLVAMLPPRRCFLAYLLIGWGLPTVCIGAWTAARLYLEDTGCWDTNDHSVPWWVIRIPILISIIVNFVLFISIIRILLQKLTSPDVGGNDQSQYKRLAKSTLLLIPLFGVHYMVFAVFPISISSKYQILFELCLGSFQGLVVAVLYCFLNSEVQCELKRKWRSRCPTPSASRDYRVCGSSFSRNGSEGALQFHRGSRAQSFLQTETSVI

T7: human VPAC2 receptor (human), P41587
T7 chain: T6 sequence (looked up)

B1: P31 (peptide)
peptide: Hexanoyl-HSDAVFTDNYTRLRKQVAAKKYLQSIKNKRYGGPSSGAPPPS
notes: also called VPAC2-P31
B2: P292 (peptide)
peptide: Hexanoyl-HSDAVFTDNYTRLR[Aib]QLAA[Aib]KYLQSIKNKGGPSSGAPPPS
modifications: ends and bridges not checked
B3: P119 (peptide)
peptide: Hexanoyl-HSDAVFTDNYTRLLAKLALQKYLQSIKNKRYGGPSSGAPPPS
notes: also called VPAC2-P119
B4: P213 (peptide)
peptide: HSDAVFTDNYTRLRKQVAAKRYLQSIRNGGPSSGAPPPS
modifications: not checked
B5: P214 (peptide)
peptide: B4 peptide with K20R
modifications: not checked
B6: P261 (peptide)
peptide: Hexanoyl-HSDAVFTDNYTRLR[Aib]QVAA[Aib]KYLQSIKNKRYGGPSSGAPPPS
modifications: ends and bridges not checked
B7: P104 (peptide)
peptide: MHSDAVFTDNYTRLRKQVAAKKYLQSIKNKRYGGPSSGAPPPS
modifications: N-terminal methionine added (M-)
notes: also called VPAC2-P104

Tests used:
rat VPAC2 receptor [1] = biological target: T1, rat VPAC2 receptor; experiment: IC50 on rat VPAC1 over IC50 on rat VPAC2
Excerpt: Each assay is done in duplicate and performed on two different membrane preparations.
TABLE 3 Binding data are expressed as the IC₅₀ values of tracer inhibition. A different reference compound is used as the tracer for the VPAC1 receptor and for the VPAC2 receptor. The last column represents the ratio between the IC₅₀ values on VPAC1 and VPAC2 receptor and is, thus, an index of selectivity for a receptor subtype. […] The values are given with the standard error.

rat VPAC1 receptor [2] = biological target: T2, rat VPAC1 receptor; experiment: cell-based or functional assay
rat PAC1 receptor = biological target: T3, rat PAC1 receptor; experiment: cell-based or functional assay
human VPAC1 receptor = biological target: T4, human VPAC1 receptor; experiment: cell-based or functional assay
human PAC1 receptor = biological target: T5, human PAC1 receptor; experiment: cell-based or functional assay
human VPAC2 receptor = biological target: T6, human VPAC2 receptor; experiment: cell-based or functional assay
rat VPAC2 receptor [3] = biological target: T1, rat VPAC2 receptor; experiment: cell-based or functional assay
rat VPAC1 receptor [4] = biological target: T2, rat VPAC1 receptor; experiment: cell-based or functional assay; remark: listed apart in the source
rat VPAC2 receptor [5] = biological target: T1, rat VPAC2 receptor; experiment: cell-based or functional assay; remark: listed apart in the source
[6] = biological target: T7, human VPAC2 receptor (human), P41587; experiment: cell-based or functional assay

Binder	VPAC1/VPAC2 (ratio of IC50 values) (rat VPAC2 receptor [1])	EC50 cAMP, DiscoveRx (rat VPAC1 receptor [2])	adenylate cyclase potency ratio compared to PACAP-27 (rat PAC1 receptor)	EC50 cAMP, DiscoveRx (human VPAC1 receptor)	EC50 cAMP, DiscoveRx (human PAC1 receptor)	EC50 cAMP, Alpha Screen (human VPAC2 receptor)	EC50 cAMP, DiscoveRx (human VPAC2 receptor)	VPAC1/VPAC2 (EC50 ratio) (rat VPAC2 receptor [3])	cAMP max (rat VPAC2 receptor [3])	cAMP max (rat VPAC1 receptor [4])	EC50 cAMP, DiscoveRx (rat VPAC2 receptor [5])	EC50 cAMP, Alpha Screen [6]
B1	546	440 pM	> 200 fold	6000 pM	116000 pM	130 pM	110 pM	174	134	200	–	–
B2	269	1910 pM	–	–	–	230 pM	–	100	79.1	124	70 pM	–
B3	47	70 pM	> 200 fold	–	–	420 pM	340 pM	32	133	207	–	–
B4	–	–	–	–	–	–	–	–	–	–	–	240 pM
B5	–	–	–	–	–	–	–	–	–	–	–	160 pM
B6	363	350 pM	–	–	–	90 pM	–	200	78.5	126	40 pM	–
B7	977	6750 pM	> 1000 fold	–	–	270 pM	–	184	129	195	510 pM	–
